The test system of assay [1] is Pichia pastoris HCPs. As to the kind of experiment: Contribution of individual PichiaGuard peptides to HCP binding (flow-through, BCA, proteomics, IgG incubation). The following applies: for coverage of HCPs: FIG. 13, by theoretical isoelectric point; for number of HCPs bound (HCP binding density): FIG. 13, proteomics; for number of HCP species bound compared with PichiaGuard: FIGS. 14A-14H. The source says:
Within HCP binding, it was observed that sequences 5 through 8 display the highest capacity for HCPs, followed by 4, 3 and 1. The same sequences in order also show low to high IgG binding potential, generating a qualitative understanding of binding capacity (Y-axis) and binding selectivity (HCP/IgG).
The color spectrum diverging from blue to red indicates an increasing number of HCPs with specific molecular weight (Y-axis) and theoretical isoelectric points (X-axis) captured by each peptide.
FIGS. 14A-14H compare the total number of identified HCPs bound by individual peptides with that of the PichiaGuard ensemble.
Analysis of PichiaGuard Peptide Contributions to HCP Binding: Contributions of individual peptides comprising PichiaGuard were discerned in terms of their binding to Pichia pastoris HCPs “by-sequence”. These studies comprised of the flow-through purification of null Pichia culture fluids (no recombinant protein), subsequently purified using chromatographic columns packed with individual peptides. The fluids were purified at a 1-minute residence time and flow-through fractions were collected across time for the identification of bound and unbound HCPs (see chromatograms in FIG. 11A). These fractions were analyzed using total protein quantification assay (BCA) and compared with that of the load sample to compute HCP log-reduction value for each individual sequence (FIG. 11B, left). Simultaneously, 25 μL of each peptide was incubated with a range of IgG concentrations (0.1-30 mg/mL resin) overnight to understand their binding propensities to the competitor molecules under non-competitive conditions. Protein content in the supernatant was estimated and compared to the initial concentrations to observe IgG binding (FIG. 11B, right). All flow-through fractions were analyzed through the proteomics workflow (as described further herein) to identify unbound HCPs and overall, correlate peptide and HCP properties. Briefly, label free quantification was performed to identify HCPs within each flow-through fraction and compared to the feed sample used within the experiment. The data was first grouped as a function of time for each peptide and data filters were applied based on the abundance ratio to label bound and unbound HCPs, at different confidence levels based on the number of fractions they were identified in. Concurrently, the “Peptides” package within RStudio was utilized to calculate sequence-based properties of each HCP such as polarity, H-bonding, hydrophobicity and charge.

For assay [2], the target named is K. phaffii host cell proteins (HCPs). Kind of assay: flow-through chromatography, acetate buffer, RT 1 min, up to 40 CVs.
Assay [3] shares this target. Kind of assay: flow-through chromatography, acetate buffer, RT 1 min, up to 10 CVs.
The target is the same in assay [4]. As to the kind of experiment: flow-through affinity chromatography.
For assay [5] the target is unchanged. As to the kind of experiment: flow-through chromatography, 30th CV mark.
The target is the same in assay [6]. Kind of assay: flow-through chromatography, around the 30th CV.
Assay [7] has the same target. Kind of assay: flow-through purification of scFv perfusate, Pichia pastoris HCP ELISA; 150 CV load.
The target is the same in assay [8]. As to the kind of experiment: flow-through chromatography of ScFv13R4 harvest, 20 mM sodium acetate pH 5.7, RT 1 min; protein loading 7.50 g/L resin.
Assay [9] has the same target. Kind of assay: static binding, Langmuir isotherm fit, HCPs treated as a single species; phosphate buffer pH 7.1-7.2; pH 7.15.
The target is the same in assay [10]. Kind of assay: flow-through chromatography of ScFv13R4 harvest, nanoLC-MS/MS.
Assay [11] has the same target. Kind of assay: flow-through chromatography of mAb harvest, acetate buffer, load up to 15 mg/mL.
The target is the same in assay [12]. Kind of assay: flow-through chromatography of ScFv13R4 harvest, 20 mM sodium acetate pH 5.7, RT 1 min; protein loading 3.90 g/L resin.
Assay [13] has the same target. Kind of assay: flow-through chromatography, DOE study.
Assay [14] shares this target. As to the kind of experiment: flow-through chromatography of ScFv13R4 harvest, 20 mM sodium acetate pH 5.7, RT 1 min; protein loading 2.10 g/L resin.
Assay [15] shares this target. As to the kind of experiment: flow-through chromatography, acetate buffer, RT 1 min, up to 100 CVs.
Assay [16] shares this target. Kind of assay: flow-through chromatography of ScFv13R4 harvest, 20 mM sodium acetate pH 5.7, RT 1 min; protein loading 5.10 g/L resin.
For assay [17] the target is unchanged. As to the kind of experiment: flow-through chromatography, acetate buffer, RT 1 min, up to 20 CVs.
Assay [18] shares this target. As to the kind of experiment: flow-through chromatography, RT 1 min.
Assay [19] has the same target. Kind of assay: static binding, Langmuir isotherm fit, HCPs treated as a single species; acetate buffer pH 5.7.
Assay [20] has the same target. Kind of assay: flow-through chromatography of ScFv13R4 harvest, 20 mM sodium acetate pH 5.7, RT 1 min; protein loading 9.30 g/L resin.
For assay [21] the target is unchanged. Kind of assay: static binding, Langmuir isotherm fit; phosphate buffer pH 7.1-7.2.
The target is the same in assay [22]. As to the kind of experiment: flow-through chromatography of ScFv13R4 harvest, 20 mM sodium acetate pH 5.7, RT 1 min; protein loading 14.40 g/L resin.
For assay [23] the target is unchanged. As to the kind of experiment: flow-through chromatography of ScFv13R4 harvest, 20 mM sodium acetate pH 5.7, RT 1 min; protein loading 6.30 g/L resin.
The target is the same in assay [24]. Kind of assay: static binding, Langmuir isotherm fit; acetate buffer pH 5.7.
For assay [25] the target is unchanged. Kind of assay: flow-through chromatography, DOE study, phosphate buffer.
The target is the same in assay [26]. Kind of assay: flow-through chromatography, DOE study, acetate buffer.

Regarding RYWK [Peptide 2], in assay [1] (FIG. 14I, non-competitive conditions), the “selectivity (HCP vs IgG binding)” value is recorded as “poor selectivity”.
With CHO LigaGuard™ resin, the cumulative HCP LRV in assay [2] was 0.45 to 0.55 LRV; in assay [3] it was 1 to 1.5 LRV.
With QEKK [Peptide 5], the “coverage of HCPs” value in [1] is “broad coverage of HCPs with varying pI”.
As for RYWV [Peptide 8], in assay [1], the “number of HCPs bound (HCP binding density)” value is reported as “least number of HCPs”.
As for YHKH [Peptide 1], in assay [1], the “coverage of HCPs” value is “broad coverage of HCPs with varying pI”, the “number of HCPs bound (HCP binding density)” value is reported as “High HCP binding densities” and the “number of HCP species bound compared with PichiaGuard” value is recorded as “binding most species”.
For EWAK [Peptide 4], in that order: “broad coverage of HCPs with varying pI”, “High HCP binding densities” and “binding most species”.
For VWHH [Peptide 7], in assay [1], the “coverage of HCPs” value was “broad coverage of HCPs with varying pI” and the “number of HCP species bound compared with PichiaGuard” value is recorded as “binding most species”.
Take WYKK [Peptide 6]: in assay [1], the “number of HCP species bound compared with PichiaGuard” value is listed as “binding most species”.

B1: PichiaGuard (peptide)
peptide 1: YHKH
peptide 2: RYWK
peptide 3: RWYQ
peptide 4: EWAK
peptide 5: QEKK
peptide 6: WYKK
peptide 7: VWHH
peptide 8: RYWV
modifications: bound to a chromatographic resin; which Toyopearl base is not said at these places
Molecule B1 showed a % reduction of HCPs and hcDNA in assay [4] of less than 99%. Moreover, in [5], the load at saturation as % of Qmax was 75 % of Qmax and the load ratio at saturation (g of HCPs per L of resin) was 18. Besides, in assay [6], the cumulative LRV at plateau stood at 1 LRV and the fractional LRV is less than 0.5 LRV. Further, the HCP removal (logs) in assay [7] came to 1.7 logs.

B2: PichiaGuard-TP650M resin (peptide)
peptide 1: YHKH
peptide 2: RYWK
peptide 3: RWYQ
peptide 4: EWAK
peptide 5: QEKK
peptide 6: WYKK
peptide 7: VWHH
peptide 8: RYWV
modifications: bound to Toyopearl AF-Amino-650M resin
As for B2, the cumulative HCP LRV is 1.34 LRV in assay [8]; 2.55 LRV in assay [12]; 3 LRV in [14]; 1.3 LRV in assay [15]; 1.92 LRV in assay [16]; 1.5 to 2 LRV in assay [17]. The cumulative HCP LRV in assay [3] is greater than 2 LRV; in assay [20], 1.14 LRV; in assay [22] it was 1.01 LRV; in assay [23] it was 1.55 LRV. The Kd (commonly a measure of binding affinity in units of concentration) in assay [9] is 30 µM; in assay [19] it was 17.5 µM. Further, the % of HCPs completely removed in assay [10] was greater than 84%. In assay [10], this molecule came in with a % of HCPs partially cleared of 15%. In [11], this molecule had an overall HCP LRV of 1.15 LRV. The same molecule showed an HCP LRV in assay [13] of 3 LRV. The molecule further showed a fold change of HCP clearance activity, phosphate buffer against acetate buffer in assay [18] of 10 fold lower. Moreover, the figures for the Qmax (maximum binding capacity) (mg HCP per mL resin) in [21] and in assay [24] were 18.3 and 25.4, respectively.

B3: PichiaGuard-TP50F resin (peptide)
peptide 1: YHKH
peptide 2: RYWK
peptide 3: RWYQ
peptide 4: EWAK
peptide 5: QEKK
peptide 6: WYKK
peptide 7: VWHH
peptide 8: RYWV
modifications: bound to aminated Toyopearl HW-50F resin
As to B3, the HCP LRV in assay [25] lay in the range of 0.8 to 1 LRV; in [26], 0.7 to 0.9 LRV.
